Source: US20210139548A1 (published 2021)
Values belong to the binder of their own block, whether it stands above or below them. *1 amine or outer side, *2 acyl side, *3 side chain or, on linkers, in order; H or OH if unused. Side-chain parts run from the residue outwards. The star is where a group is joined. C18 diacid = O=C(O)CCCCCCCCCCCCCCCCC(=O)*; γGlu = O=C(O)[C@H](CCC(=O)[*:2])N[*:1]; Isovaleryl = CC(C)CC(=O)*; AEEA = NCCOCCOCC(=O)O

Biological target: T1, human neuropeptide Y2 receptor (human, UniProt P49146 1-381)
T1 construct: whole, on cells; also called hNPY2 receptor; hNPY2-R
T1 sequence (looked up): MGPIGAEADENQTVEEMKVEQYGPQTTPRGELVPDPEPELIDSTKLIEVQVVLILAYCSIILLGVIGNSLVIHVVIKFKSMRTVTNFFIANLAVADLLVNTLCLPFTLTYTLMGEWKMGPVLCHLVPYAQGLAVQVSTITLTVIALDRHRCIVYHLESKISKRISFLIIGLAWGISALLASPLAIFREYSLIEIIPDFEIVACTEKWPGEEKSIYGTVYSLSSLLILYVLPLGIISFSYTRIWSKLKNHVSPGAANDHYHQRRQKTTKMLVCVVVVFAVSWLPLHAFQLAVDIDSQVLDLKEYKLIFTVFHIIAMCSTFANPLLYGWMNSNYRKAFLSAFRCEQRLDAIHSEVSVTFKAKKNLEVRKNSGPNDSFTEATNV
Experiment: radioligand competition (125I-PYY(1-36)), hNPY2R membranes
In short: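 Commercial human Y2 receptor membranes (0.5 μg protein/well) were incubated with peptide for 2 h at room temperature in 50 mM HEPES, 5 mM MgCl₂, 1 mM CaCl₂, pH 7.4, with 0.2% ovalbumin. Bound radioligand was separated on PEI-soaked GF/C filters and counted by scintillation, and IC₅₀ came from nonlinear sigmoidal regression.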

- Ki: 2.75 nM
B1: Compound 149 (peptide)
peptide: Isovaleryl-APEK([AEEA-AEEA-γGlu-C18 diacid])PEEAASPEELQRYYVELRHYYNWLTRQRY-NH2
SMILES: CC(C)CC(=O)N[C@@H](C)C(=O)N1CCC[C@H]1C(=O)N[C@@H](CCC(=O)O)C(=O)N[C@@H](CCCCNC(=O)COCCOCCNC(=O)COCCOCCNC(=O)CC[C@H](NC(=O)CCCCCCCCCCCCCCCCC(=O)O)C(=O)O)C(=O)N1CCC[C@H]1C(=O)N[C@@H](CCC(=O)O)C(=O)N[C@@H](CCC(=O)O)C(=O)N[C@@H](C)C(=O)N[C@@H](C)C(=O)N[C@@H](CO)C(=O)N1CCC[C@H]1C(=O)N[C@@H](CCC(=O)O)C(=O)N[C@@H](CCC(=O)O)C(=O)N[C@@H](CC(C)C)C(=O)N[C@@H](CCC(N)=O)C(=O)N[C@@H](CCCNC(=N)N)C(=O)N[C@@H](Cc1ccc(O)cc1)C(=O)N[C@@H](Cc1ccc(O)cc1)C(=O)N[C@H](C(=O)N[C@@H](CCC(=O)O)C(=O)N[C@@H](CC(C)C)C(=O)N[C@@H](CCCNC(=N)N)C(=O)N[C@@H](Cc1c[nH]cn1)C(=O)N[C@@H](Cc1ccc(O)cc1)C(=O)N[C@@H](Cc1ccc(O)cc1)C(=O)N[C@@H](CC(N)=O)C(=O)N[C@@H](Cc1c[nH]c2ccccc12)C(=O)N[C@@H](CC(C)C)C(=O)N[C@H](C(=O)N[C@@H](CCCNC(=N)N)C(=O)N[C@@H](CCC(N)=O)C(=O)N[C@@H](CCCNC(=N)N)C(=O)N[C@@H](Cc1ccc(O)cc1)C(N)=O)[C@@H](C)O)C(C)C

- Ki: 2.02 nM
B2: Compound 150 (peptide)
peptide: Isovaleryl-APEK([AEEA-AEEA-γGlu-C18 diacid])PEEDAEPEELQKYYVSLRHYYNWLTRQRY-NH2
SMILES: CC(C)CC(=O)N[C@@H](C)C(=O)N1CCC[C@H]1C(=O)N[C@@H](CCC(=O)O)C(=O)N[C@@H](CCCCNC(=O)COCCOCCNC(=O)COCCOCCNC(=O)CC[C@H](NC(=O)CCCCCCCCCCCCCCCCC(=O)O)C(=O)O)C(=O)N1CCC[C@H]1C(=O)N[C@@H](CCC(=O)O)C(=O)N[C@@H](CCC(=O)O)C(=O)N[C@@H](CC(=O)O)C(=O)N[C@@H](C)C(=O)N[C@@H](CCC(=O)O)C(=O)N1CCC[C@H]1C(=O)N[C@@H](CCC(=O)O)C(=O)N[C@@H](CCC(=O)O)C(=O)N[C@@H](CC(C)C)C(=O)N[C@@H](CCC(N)=O)C(=O)N[C@@H](CCCCN)C(=O)N[C@@H](Cc1ccc(O)cc1)C(=O)N[C@@H](Cc1ccc(O)cc1)C(=O)N[C@H](C(=O)N[C@@H](CO)C(=O)N[C@@H](CC(C)C)C(=O)N[C@@H](CCCNC(=N)N)C(=O)N[C@@H](Cc1c[nH]cn1)C(=O)N[C@@H](Cc1ccc(O)cc1)C(=O)N[C@@H](Cc1ccc(O)cc1)C(=O)N[C@@H](CC(N)=O)C(=O)N[C@@H](Cc1c[nH]c2ccccc12)C(=O)N[C@@H](CC(C)C)C(=O)N[C@H](C(=O)N[C@@H](CCCNC(=N)N)C(=O)N[C@@H](CCC(N)=O)C(=O)N[C@@H](CCCNC(=N)N)C(=O)N[C@@H](Cc1ccc(O)cc1)C(N)=O)[C@@H](C)O)C(C)C

- Ki: 1.43 nM
B3: Compound 151 (peptide)
peptide: Isovaleryl-APEK([AEEA-AEEA-γGlu-C18 diacid])PEAEASPEELQRYYVSLRHYYNWLTRQRY-NH2
SMILES: CC(C)CC(=O)N[C@@H](C)C(=O)N1CCC[C@H]1C(=O)N[C@@H](CCC(=O)O)C(=O)N[C@@H](CCCCNC(=O)COCCOCCNC(=O)COCCOCCNC(=O)CC[C@H](NC(=O)CCCCCCCCCCCCCCCCC(=O)O)C(=O)O)C(=O)N1CCC[C@H]1C(=O)N[C@@H](CCC(=O)O)C(=O)N[C@@H](C)C(=O)N[C@@H](CCC(=O)O)C(=O)N[C@@H](C)C(=O)N[C@@H](CO)C(=O)N1CCC[C@H]1C(=O)N[C@@H](CCC(=O)O)C(=O)N[C@@H](CCC(=O)O)C(=O)N[C@@H](CC(C)C)C(=O)N[C@@H](CCC(N)=O)C(=O)N[C@@H](CCCNC(=N)N)C(=O)N[C@@H](Cc1ccc(O)cc1)C(=O)N[C@@H](Cc1ccc(O)cc1)C(=O)N[C@H](C(=O)N[C@@H](CO)C(=O)N[C@@H](CC(C)C)C(=O)N[C@@H](CCCNC(=N)N)C(=O)N[C@@H](Cc1c[nH]cn1)C(=O)N[C@@H](Cc1ccc(O)cc1)C(=O)N[C@@H](Cc1ccc(O)cc1)C(=O)N[C@@H](CC(N)=O)C(=O)N[C@@H](Cc1c[nH]c2ccccc12)C(=O)N[C@@H](CC(C)C)C(=O)N[C@H](C(=O)N[C@@H](CCCNC(=N)N)C(=O)N[C@@H](CCC(N)=O)C(=O)N[C@@H](CCCNC(=N)N)C(=O)N[C@@H](Cc1ccc(O)cc1)C(N)=O)[C@@H](C)O)C(C)C

- Ki: 5.18 nM
B4: Compound 152 (peptide)
peptide: Isovaleryl-APEK([AEEA-AEEA-γGlu-C18 diacid])AEEDASPEEIQRYYVSLRHYYNWLTRQRY-NH2
SMILES: CC[C@H](C)[C@H](NC(=O)[C@H](CCC(=O)O)NC(=O)[C@H](CCC(=O)O)NC(=O)[C@@H]1CCCN1C(=O)[C@H](CO)NC(=O)[C@H](C)NC(=O)[C@H](CC(=O)O)NC(=O)[C@H](CCC(=O)O)NC(=O)[C@H](CCC(=O)O)NC(=O)[C@H](C)NC(=O)[C@H](CCCCNC(=O)COCCOCCNC(=O)COCCOCCNC(=O)CC[C@H](NC(=O)CCCCCCCCCCCCCCCCC(=O)O)C(=O)O)NC(=O)[C@H](CCC(=O)O)NC(=O)[C@@H]1CCCN1C(=O)[C@H](C)NC(=O)CC(C)C)C(=O)N[C@@H](CCC(N)=O)C(=O)N[C@@H](CCCNC(=N)N)C(=O)N[C@@H](Cc1ccc(O)cc1)C(=O)N[C@@H](Cc1ccc(O)cc1)C(=O)N[C@H](C(=O)N[C@@H](CO)C(=O)N[C@@H](CC(C)C)C(=O)N[C@@H](CCCNC(=N)N)C(=O)N[C@@H](Cc1c[nH]cn1)C(=O)N[C@@H](Cc1ccc(O)cc1)C(=O)N[C@@H](Cc1ccc(O)cc1)C(=O)N[C@@H](CC(N)=O)C(=O)N[C@@H](Cc1c[nH]c2ccccc12)C(=O)N[C@@H](CC(C)C)C(=O)N[C@H](C(=O)N[C@@H](CCCNC(=N)N)C(=O)N[C@@H](CCC(N)=O)C(=O)N[C@@H](CCCNC(=N)N)C(=O)N[C@@H](Cc1ccc(O)cc1)C(N)=O)[C@@H](C)O)C(C)C

- Ki: 14.4 nM
B5: Compound 153 (peptide)
peptide: Isovaleryl-APEK([AEEA-AEEA-γGlu-C18 diacid])VEEEASPEELQRYYVSLRHYYNWLTRQRY-NH2
SMILES: CC(C)CC(=O)N[C@@H](C)C(=O)N1CCC[C@H]1C(=O)N[C@@H](CCC(=O)O)C(=O)N[C@@H](CCCCNC(=O)COCCOCCNC(=O)COCCOCCNC(=O)CC[C@H](NC(=O)CCCCCCCCCCCCCCCCC(=O)O)C(=O)O)C(=O)N[C@H](C(=O)N[C@@H](CCC(=O)O)C(=O)N[C@@H](CCC(=O)O)C(=O)N[C@@H](CCC(=O)O)C(=O)N[C@@H](C)C(=O)N[C@@H](CO)C(=O)N1CCC[C@H]1C(=O)N[C@@H](CCC(=O)O)C(=O)N[C@@H](CCC(=O)O)C(=O)N[C@@H](CC(C)C)C(=O)N[C@@H](CCC(N)=O)C(=O)N[C@@H](CCCNC(=N)N)C(=O)N[C@@H](Cc1ccc(O)cc1)C(=O)N[C@@H](Cc1ccc(O)cc1)C(=O)N[C@H](C(=O)N[C@@H](CO)C(=O)N[C@@H](CC(C)C)C(=O)N[C@@H](CCCNC(=N)N)C(=O)N[C@@H](Cc1c[nH]cn1)C(=O)N[C@@H](Cc1ccc(O)cc1)C(=O)N[C@@H](Cc1ccc(O)cc1)C(=O)N[C@@H](CC(N)=O)C(=O)N[C@@H](Cc1c[nH]c2ccccc12)C(=O)N[C@@H](CC(C)C)C(=O)N[C@H](C(=O)N[C@@H](CCCNC(=N)N)C(=O)N[C@@H](CCC(N)=O)C(=O)N[C@@H](CCCNC(=N)N)C(=O)N[C@@H](Cc1ccc(O)cc1)C(N)=O)[C@@H](C)O)C(C)C)C(C)C

- Ki: 2.05 nM
B6: Compound 155 (peptide)
peptide: Isovaleryl-APEK([AEEA-AEEA-γGlu-C18 diacid])PEEDASPEETQRYYVSLRHYYNWLTRQRY-NH2
SMILES: CC(C)CC(=O)N[C@@H](C)C(=O)N1CCC[C@H]1C(=O)N[C@@H](CCC(=O)O)C(=O)N[C@@H](CCCCNC(=O)COCCOCCNC(=O)COCCOCCNC(=O)CC[C@H](NC(=O)CCCCCCCCCCCCCCCCC(=O)O)C(=O)O)C(=O)N1CCC[C@H]1C(=O)N[C@@H](CCC(=O)O)C(=O)N[C@@H](CCC(=O)O)C(=O)N[C@@H](CC(=O)O)C(=O)N[C@@H](C)C(=O)N[C@@H](CO)C(=O)N1CCC[C@H]1C(=O)N[C@@H](CCC(=O)O)C(=O)N[C@@H](CCC(=O)O)C(=O)N[C@H](C(=O)N[C@@H](CCC(N)=O)C(=O)N[C@@H](CCCNC(=N)N)C(=O)N[C@@H](Cc1ccc(O)cc1)C(=O)N[C@@H](Cc1ccc(O)cc1)C(=O)N[C@H](C(=O)N[C@@H](CO)C(=O)N[C@@H](CC(C)C)C(=O)N[C@@H](CCCNC(=N)N)C(=O)N[C@@H](Cc1c[nH]cn1)C(=O)N[C@@H](Cc1ccc(O)cc1)C(=O)N[C@@H](Cc1ccc(O)cc1)C(=O)N[C@@H](CC(N)=O)C(=O)N[C@@H](Cc1c[nH]c2ccccc12)C(=O)N[C@@H](CC(C)C)C(=O)N[C@H](C(=O)N[C@@H](CCCNC(=N)N)C(=O)N[C@@H](CCC(N)=O)C(=O)N[C@@H](CCCNC(=N)N)C(=O)N[C@@H](Cc1ccc(O)cc1)C(N)=O)[C@@H](C)O)C(C)C)[C@@H](C)O
